What was measured:
[1] = test system: pheromone response pathway; assay: Chemiluminescent β-galactosidase assay of FUS1-LacZ in MMY9 cells; format: cell-based, Saccharomyces cerevisiae; conditions: GPA1 promoter, mean ±SD, n≧5
Description: Assays for FUS1-IacZ Expression. β-galactosidase activities in cell extracts were measured with two assays. In the first assay (ONPG assay), cell extracts were incubated with the substrate ONPG as described by (37). Units were defined as (A420×1000)/(OD600x×t×v) (25). In the chemiluminescent assay, cells were grown to late logarithmic phase and diluted to 0.02 OD600 in 100 μl SC-WH medium in the presence or absence of 1 μM α-factor in 96-well microtitre plates. After incubation (30° C.; 6 hours), 20 μl of cells were removed and mixed with 20 μl assay mix (125 mM sodium phosphate pH 7.6, 15 mM MgSO4, 200 μM Galacton-Star β-galactosidase substrate (Tropix), 10% (v/v) Sapphire II (Tropix), 1 U/μl oxalyticase (Enzogenetics)). After incubation (30° C.; 1 hr) chemiluminescence was determined in a Top-count scintillation counter (Packard).
A Gpa1/Gαs chimera has been reported to couple the growth hormone releasing hormone receptor (12) when expressed from the strong constitutive promoter of the yeast phosphoglycerate kinase (PGK1) gene. We constructed Gpa1/Gαs and Gpa1/Gαq chimeras similar to those described above (FIG. 5b) and expressed them in MMY9 cells from the promoter of the GPA1 gene. We assayed FUS1-LacZ activity in these cells using a chemiluminescent assay, rather than the ONPG assay described above. […]

[2] = target: T1, purinergic nucleotide P2Y1 receptor (Homo sapiens, UniProt P47900); assay: CPRG assay, MMY11 cells expressing P2Y1 receptor plus Gα subunit; format: cell-based; set-up: key: weak activation insufficient to carry out curve-fitting was detected; NC: no coupling was detected
T1 construct: expressed in transfected cells; host or cells: Saccharomyces cerevisiae strain MMY11, plasmid pDT-PGK-P2Y1
T1 sequence (P47900 whole entry): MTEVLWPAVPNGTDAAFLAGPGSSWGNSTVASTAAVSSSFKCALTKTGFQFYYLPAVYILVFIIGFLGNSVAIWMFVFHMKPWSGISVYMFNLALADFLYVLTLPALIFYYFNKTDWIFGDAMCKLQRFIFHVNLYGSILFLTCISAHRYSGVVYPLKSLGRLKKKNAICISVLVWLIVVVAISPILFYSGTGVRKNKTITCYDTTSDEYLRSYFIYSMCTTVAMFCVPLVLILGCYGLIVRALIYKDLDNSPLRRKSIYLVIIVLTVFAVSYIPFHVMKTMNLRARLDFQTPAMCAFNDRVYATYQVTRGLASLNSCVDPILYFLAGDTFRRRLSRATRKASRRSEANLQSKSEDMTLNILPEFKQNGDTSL
Description: Assay for combined FUS1-lacZ and FUS1-HIS3 Expression. In vivo assays of reporter gene induction (CPRG assays) were carried out by suspending cells to 0.02 OD600 in 200 μl SC-glucose (2%) lacking tryptophan, uracil and histidine. This medium was supplemented with agonists, and additionally 10 mM 3-aminotriazole and the β-galactosidase (lacZ) substrate chlorophenolred-β-D-galactopyranoside (CPRG; Boehringer) to a concentration of 0.1 mg/ml. To visualise the colour change reaction, the medium was buffered to pH 7 with 0.1 M sodium phosphate. The assay was conducted in a 96-well microtitre plate format. Plates were incubated for 24 hours without agitation, and absorbance at 570 nm was determined using a Victor microtitre plate reader (Wallac). EC50 values (+/−standard error) were estimated by curve-fitting, using the Robosage software package.
MMY11 was used in an experiment in which cells were transformed with pairs of plasmids as before, one to express a Gα subunit and the other a receptor expression construct. […] Where pheromone response pathway activation was detected, the agonist concentration required to yield a half-maximal response (EC50+/−standard error; all values in nM except where otherwise indicated) was determined by curve-fitting, and is shown in Table 4A. Where no coupling was detected, this is also indicated (NC).

B1: Gpa1p: endogenous yeast Gα subunit, product of the GPA1 gene (protein, UniProt P08539 2-472, looked up)
Guanine nucleotide-binding …: GCTVSTQTIGDESDPFLQNKRANDVIEQSLQLEKQRDKNEIKLLLLGAGESGKSTVLKQLKLLHQGGFSHQERLQYAQVIWADAIQSMKILIIQARKLGIQLDCDDPINNKDLFACKRILLKAKALDYINASVAGGSDFLNDYVLKYSERYETRRRVQSTGRAKAAFDEDGNISNVKSDTDRDAETVTQNEDADRNNSSRINLQDICKDLNQEGDDQMFVRKTSREIQGQNRRNLIHEDIAKAIKQLWNNDKGIKQCFARSNEFQLEGSAAYYFDNIEKFASPNYVCTDEDILKGRIKTTGITETEFNIGSSKFKVLDAGGQRSERKKWIHCFEGITAVLFVLAMSEYDQMLFEDERVNRMHESIMLFDTLLNSKWFKDTPFILFLNKIDLFEEKVKSMPIRKYFPDYQGRVGDAEAGLKYFEKIFLSLNKTNKPIYVKRTCATDTQTMKFVLSAVTDLIIQQNLKKIGII
FUS1-LacZ Activity, 1 μM α-factor [1]: 27.2 ± 1.7 light units (×10^6 cps) | FUS1-LacZ Activity, No α-factor [1]: 0.73 ± 0.25 light units (×10^6 cps) | coupling class where no EC50 could be fitted [2]: NC

From US6509447B1, “G protein chimeras and methods of screening compounds” (Glaxo Welcome Inc., priority 1997, dated 2003)
